{"source": "patent US20130115220A1", "about": "“METHOD FOR PREVENTION OR TREATMENT OF METABOLIC SYNDROME” (DAINIPPON SUMITOMO PHARMA CO., LTD., priority 2010, published 2013)", "molecules": {"B1": {"name": "rAIM: recombinant AIM protein (rAIM) of mouse, HA-tagged, prepared in HEK293T cells (protein)", "chain": "ESPTKVQLVGGAHRCEGRVEVEHNGQWGTVCDDGWDRRDVAVVCRELNCGAVIQTPRGASYQPPASEQRVLIQGVDCNGTEDTLAQCELNYYVFDCSHEEDAGAQCENPDSDLLFIPEDVRLVDGPGHCQGRVEVLHQSQWSTVCKAGWNLQVSKVVCRQLGCGRALLTYGSCNKNTQGKGPIWMGKMSCSGQEANLRSCLLSRLENNCTHGEDTWMECEDPFELKLVGGDTPCSGRLEVLHKGSWGSVCDDNWGEKEDQVVCKQLGCGKSLHPSPKTRKIYGPGAGRIWLDDVNCSGKEQSLEFCRHRLWGYHDCTHKEDVEVICTDFDV", "modifications": "left off: small tags and cut ends", "notes": "recombinant AIM protein (rAIM) of mouse, HA-tagged, prepared in HEK293T cells"}}, "key": {"3T3-L1 preadipocytes": {"test_system": "3T3-L1 preadipocytes", "test": "Differentiation of 3T3-L1 preadipocytes into mature adipocytes, lipid droplet formation by oil-red-O", "type": "cell-based", "protocol": "To examine the function of AIM produced by macrophage that infiltrated into adipose tissue on the surrounding adipocytes, an experiment was performed to load AIM in the culture process for differentiation of 3T3-L1 preadipocytes into mature adipocytes.\nAs AIM, recombinant AIM protein (rAIM) of mouse was used. rAIM was prepared by culturing human-derived HEK293T cells transfected with a vector expressing mouse AIM (pCAGGS-mAIM-HA plasmid) in a serum-free medium (FreeStyle™ 293 Expression Medium; Invitrogen). rAIM was purified from the culture supernatant thereof using an anti-HA antibody column. In other Reference Examples shown below, AIM used was a similar rAIM protein. AIM was loaded by adding AIM to a culture medium at a concentration of 5 μg/ml.\nIn addition, differentiation of 3T3-L1 cells was induced as shown in FIG. 13 by first proliferating 3T3-L1 cells by cultivating for 4 days (day(−2)-day 2), after which cultivating in a culture medium containing insulin, dexamethasone (DEX) and isobutylmethylxanthine (IBMX) for 2 days (day 2-day 4) to start differentiation induction stimulation, and further cultivating in a culture medium containing insulin for 2 days (day 4-day 6).\nAfter the differentiation induction stimulation period (day 2-day 6), the cells were continuously cultured in a culture medium free of such differentiation induction stimulation factors. Then, the cells on day 10 day from the start of the differentiation induction stimulation (day 12) were stained with oil-red-O, and the state of differentiation of 3T3-L1 cells into mature adipocytes was observed."}, "3T3-L1 cells [1]": {"test_system": "3T3-L1 cells", "test": "Expression of adipocyte markers by quantitative real-time PCR", "type": "cell-based, mouse", "conditions": "day 12", "protocol": "The cells cultured in schedules A-D shown in FIG. 13 were recovered on day 10 from the start of the differentiation induction stimulation (day 12), and expression of adipocyte markers (C/EBPα, PPARγ1, PPARγ2, CD36, Glut4) at mRNA level was measured using 7500 Fast Real-Time PCR system (Invitrogen; CA, USA) by ΔΔCT method."}, "3T3-L1 adipocytes": {"test_system": "3T3-L1 adipocytes", "test": "Expression of lipid droplet formation-related genes and PREF-1 by real-time PCR", "type": "cell-based, mouse", "conditions": "rAIM 5 μg/ml", "protocol": "rAIM was loaded (5 μg/ml) on 3T3-L1 adipocytes, mRNA of lipid droplet formation-related genes (FSP27, Perilipin, and Adipophilin) was measured on day 2, day 4, and day 6 using 7500 Fast Real-Time PCR system (Invitrogen; CA, USA) and by the ΔΔCT method (each n=3).\nSimilarly, mRNA of PREF-1 of preadipocyte marker was also measured. The measurement value was standardized with GAPDH.\nRelative expression level was determined with that on day 0 as 1.0."}, "3T3-L1 cells [2]": {"test_system": "3T3-L1 cells", "test": "rAIM uptake into 3T3-L1 cells by staining", "type": "cell-based, mouse", "protocol": "Differentiated 3T3-L1 cells (ins/DEX/IBMX stimulation (+)) and undifferentiated 3T3-L1 cells (ins/DEX/IBMX stimulation (−)) were incubated with rAIM (5 μg/ml) for 3 hr, and stained with AIM, PPARγ2, and DAPI. For staining with PPARγ2, a rabbit anti-PPARγ2 polyclonal antibody (Abcam plc) was used.\nIn addition, 3T3-L1 adipocytes were treated with rAIM for 3 hr, stained with AIM and endosome (FM 1-43FX (Invitrogen Corporation) was used), AIM and lysosome (Lyso Tracker Red DND-99 (Invitrogen Corporation) was used), and observed under a confocal microscope."}, "CD36-/- mice": {"test_system": "CD36-/- mice", "test": "rAIM uptake into adipose tissue of CD36+/+ and CD36-/- mice", "type": "in vivo", "conditions": "rAIM intravenous 300 μg/mouse, 16 hr", "protocol": "Then, CD36^+/+ mice (wild-type) and CD36^−/− mice (Febbraio et al., J. Biol. Chem., 1999, 274:19055-19062) were intravenously injected with rAIM (300 μg/mouse in PBS), sacrificed 16 hr later, and a section was prepared from adipose tissue. AIM and macrophage F4/80 in the section were stained."}, "FAS [3]": {"target": "T1, FAS (Mus musculus, UniProt P19096)", "T1 sequence (P19096 whole entry)": "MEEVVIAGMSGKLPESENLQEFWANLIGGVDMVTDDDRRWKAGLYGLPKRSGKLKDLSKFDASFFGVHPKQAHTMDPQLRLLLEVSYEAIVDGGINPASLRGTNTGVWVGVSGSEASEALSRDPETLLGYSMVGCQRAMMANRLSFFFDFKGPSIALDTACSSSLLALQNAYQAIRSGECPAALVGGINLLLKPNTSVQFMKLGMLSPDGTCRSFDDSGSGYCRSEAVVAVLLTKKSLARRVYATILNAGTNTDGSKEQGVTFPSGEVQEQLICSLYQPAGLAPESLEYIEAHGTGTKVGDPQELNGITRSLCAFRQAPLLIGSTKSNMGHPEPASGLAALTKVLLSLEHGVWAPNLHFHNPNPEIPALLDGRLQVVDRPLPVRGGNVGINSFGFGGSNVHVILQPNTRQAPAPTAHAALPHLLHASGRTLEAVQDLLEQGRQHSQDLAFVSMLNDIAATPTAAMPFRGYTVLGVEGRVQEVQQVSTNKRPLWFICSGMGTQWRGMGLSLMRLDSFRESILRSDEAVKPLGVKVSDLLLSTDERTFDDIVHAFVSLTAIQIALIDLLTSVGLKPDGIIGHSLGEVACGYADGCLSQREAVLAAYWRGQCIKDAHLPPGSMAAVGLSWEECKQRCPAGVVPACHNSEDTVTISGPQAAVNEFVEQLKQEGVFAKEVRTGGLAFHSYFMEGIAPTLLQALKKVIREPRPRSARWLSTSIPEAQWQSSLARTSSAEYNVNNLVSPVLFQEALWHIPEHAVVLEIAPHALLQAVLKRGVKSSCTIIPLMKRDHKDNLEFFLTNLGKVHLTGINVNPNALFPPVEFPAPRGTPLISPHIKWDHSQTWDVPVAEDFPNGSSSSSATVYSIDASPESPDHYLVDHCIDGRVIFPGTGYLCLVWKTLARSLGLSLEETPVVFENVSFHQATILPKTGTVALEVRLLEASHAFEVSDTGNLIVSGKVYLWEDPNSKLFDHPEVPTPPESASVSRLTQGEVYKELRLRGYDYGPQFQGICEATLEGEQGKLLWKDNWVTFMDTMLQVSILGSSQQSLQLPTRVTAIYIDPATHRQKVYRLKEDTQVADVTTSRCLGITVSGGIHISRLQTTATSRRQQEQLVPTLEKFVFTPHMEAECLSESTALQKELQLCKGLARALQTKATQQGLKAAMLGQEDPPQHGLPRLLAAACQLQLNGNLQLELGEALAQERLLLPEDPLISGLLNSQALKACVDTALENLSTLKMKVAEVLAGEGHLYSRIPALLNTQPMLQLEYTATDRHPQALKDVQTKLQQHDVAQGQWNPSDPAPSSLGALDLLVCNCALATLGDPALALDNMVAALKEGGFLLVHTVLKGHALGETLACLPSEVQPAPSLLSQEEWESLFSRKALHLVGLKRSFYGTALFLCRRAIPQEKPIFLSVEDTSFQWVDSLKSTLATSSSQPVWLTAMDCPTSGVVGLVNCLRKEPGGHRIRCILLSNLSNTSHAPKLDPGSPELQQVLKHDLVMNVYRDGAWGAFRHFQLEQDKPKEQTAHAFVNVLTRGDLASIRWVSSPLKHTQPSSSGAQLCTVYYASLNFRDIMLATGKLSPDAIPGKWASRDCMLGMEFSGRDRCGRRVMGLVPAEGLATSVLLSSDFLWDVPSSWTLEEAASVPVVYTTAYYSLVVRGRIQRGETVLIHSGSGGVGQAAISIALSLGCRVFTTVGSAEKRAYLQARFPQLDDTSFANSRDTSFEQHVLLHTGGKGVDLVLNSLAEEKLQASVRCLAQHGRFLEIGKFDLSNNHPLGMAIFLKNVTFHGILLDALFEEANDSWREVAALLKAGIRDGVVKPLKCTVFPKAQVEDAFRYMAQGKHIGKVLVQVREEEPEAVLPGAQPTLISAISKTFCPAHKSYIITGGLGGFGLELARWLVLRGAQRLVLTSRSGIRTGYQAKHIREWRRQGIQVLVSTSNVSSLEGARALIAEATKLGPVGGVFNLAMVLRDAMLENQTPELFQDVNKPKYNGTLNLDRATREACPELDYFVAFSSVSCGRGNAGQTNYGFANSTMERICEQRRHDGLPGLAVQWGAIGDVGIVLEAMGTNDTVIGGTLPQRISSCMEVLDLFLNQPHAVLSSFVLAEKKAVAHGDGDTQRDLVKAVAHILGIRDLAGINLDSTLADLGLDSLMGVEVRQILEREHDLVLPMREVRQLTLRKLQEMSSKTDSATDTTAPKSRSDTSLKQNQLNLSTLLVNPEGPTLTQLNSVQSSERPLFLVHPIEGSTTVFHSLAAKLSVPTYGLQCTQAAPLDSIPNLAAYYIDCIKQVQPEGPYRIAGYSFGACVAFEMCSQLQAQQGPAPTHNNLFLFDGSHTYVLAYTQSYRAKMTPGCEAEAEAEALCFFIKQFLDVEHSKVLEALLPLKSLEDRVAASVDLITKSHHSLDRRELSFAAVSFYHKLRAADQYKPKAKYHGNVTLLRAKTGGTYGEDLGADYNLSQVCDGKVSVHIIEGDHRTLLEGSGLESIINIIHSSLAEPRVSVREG", "test": "Co-immunoprecipitation of rAIM-HA and endogenous FAS in adipose tissue", "type": "binding", "parameters": "endogenous", "conditions": "adipose tissue of AIM-/- mice, 100 μg injected, 3 hr", "protocol": "rAIM labeled with HA-tag was directly injected to adipose tissue of AIM^−/− mice (at several points, 100 μg in total). After 3 hr, to confirm binding of rAIM-HA and endogenous FAS, co-immunoprecipitation by anti-HA antibody was performed using adipose tissue. The presence of FAS in the precipitate was analyzed by Western blotting (WB)."}, "FAS [4]": {"target": "T1, FAS", "test": "Co-immunoprecipitation of AIM-HA and FLAG-FAS or FAS domains in HEK 293T cells", "type": "binding", "parameters": "expressed in transfected cells; host or cells: HEK 293T cells co-expressing AIM-HA", "conditions": "HEK 293T cells co-expressing HA-tag rAIM and FLAG-tag FAS", "text": "In HEK 293T cells, rAIM labeled with HA-tag and FAS labeled with FLAG-tag were co-expressed, and the binding of AIM and FAS was confirmed by co-immunoprecipitation using an anti-Flag antibody or anti-HA antibody.\nThen, the AIM binding region in FAS was examined. FAS contains 8 domains of keto acyl synthase (KS), malonyl/acetyl transferase (MAT), dehydrase (DH), central core (CC), enoylreductase (ER), keto reductase (KR), acylcarrier protein (ACP) and thioesterase (TE).\nThe N-terminal of each domain of FAS was labeled with Flag sequence, and expressed in HEK293T cells where AIM-HA is stably expressed. The binding of AIM-HA and each domain of FAS was confirmed by co-immunoprecipitation using an anti-Flag antibody or anti-HA antibody.\nThe sequence encoding full-length FAS cDNA (nucleotide: +1-7515) labeled with FLAG-tag was constructed using a part of the cDNA clone provided by Dr. Ohara (Kazusa DNA Research Institute) and some fragments cloned by RT-PCR and pFLAG-CMV2 vector (Sigma).\nA cDNA fragment encoding KS, MAT, DH, CC, ER, KR, ACP or TE was prepared by subcloning to pFLAG-CMV2 vector by using full-length FAS cDNA as a template."}}, "data": [{"molecule": "B1", "values": [{"measurement": "differentiation suppressive effect", "setting": "3T3-L1 preadipocytes; AIM concentration decreased to 1 μg/ml and 0.1 μg/ml", "value": "decreased"}, {"measurement": "differentiation of 3T3-L1 cells into adipocytes", "setting": "3T3-L1 preadipocytes; AIM continuously loaded day(-2)-day 12", "value": "completely suppressed"}, {"measurement": "number of dead cells", "setting": "3T3-L1 preadipocytes; AIM loading on 3T3-L1 cells", "value": "did not increase"}, {"measurement": "differentiation of 3T3-L1 cells (cells having lipid droplet, oil-red-O, day 12)", "setting": "3T3-L1 preadipocytes; schedule B, AIM 5 μg/ml loaded day 2-day 12", "value": "nearly completely suppressed"}, {"measurement": "differentiation of 3T3-L1 cells (cells having lipid droplet, oil-red-O, day 12)", "setting": "3T3-L1 preadipocytes; schedule C, AIM 5 μg/ml loaded only day 2-day 4", "value": "nearly completely suppressed"}, {"measurement": "differentiation of 3T3-L1 cells into mature adipocytes", "setting": "3T3-L1 preadipocytes; schedule D, AIM loaded only before differentiation induction, day(-2)-day 2", "value": "not suppressed"}, {"measurement": "expression of adipocyte markers (C/EBPα, PPARγ1, PPARγ2, CD36, Glut4) mRNA", "setting": "3T3-L1 cells [1]; schedule B", "value": "suppressed"}, {"measurement": "expression of adipocyte markers (C/EBPα, PPARγ1, PPARγ2, CD36, Glut4) mRNA", "setting": "3T3-L1 cells [1]; schedule D as printed, AIM administered simultaneously with differentiation induction stimulation", "value": "suppressed"}, {"measurement": "expression of adipocyte markers (C/EBPα, PPARγ1, PPARγ2, CD36, Glut4) mRNA", "setting": "3T3-L1 cells [1]; schedule D, AIM only before differentiation induction", "value": "expressed"}, {"measurement": "expression of lipid droplet formation-related genes (FSP27, Perilipin, Adipophilin)", "setting": "3T3-L1 adipocytes; day 2, relative to day 0", "value": "decreased markedly"}, {"measurement": "expression of preadipocyte markers (PREF-1)", "setting": "3T3-L1 adipocytes; during rAIM treatment", "value": "did not increase"}, {"measurement": "intracellular localization of incorporated rAIM (endosome, lysosome staining)", "setting": "3T3-L1 cells [2]; 3T3-L1 adipocytes, rAIM 3 hr, confocal microscope", "value": "co-localized with endosome"}, {"measurement": "rAIM uptake efficiency", "setting": "3T3-L1 cells [2]; cells showing low expression of PPARγ2, rAIM 5 μg/ml, 3 hr", "value": "markedly low"}, {"measurement": "rAIM uptake (cells containing rAIM per 100 cells)", "setting": "3T3-L1 cells [2]; mature adipocytes highly expressing PPARγ2, rAIM 5 μg/ml, 3 hr", "value": "efficient rAIM uptake"}, {"measurement": "rAIM uptake", "setting": "3T3-L1 cells [2]; preadipocytes free of differentiation induction stimulation, rAIM 5 μg/ml, 3 hr", "value": "no rAIM uptake"}, {"measurement": "AIM signal in adipocyte", "setting": "CD36-/- mice", "value": "markedly decreased"}, {"measurement": "binding of rAIM-HA and endogenous FAS (co-immunoprecipitation, Western blotting)", "setting": "FAS [3]", "value": "coprecipitated"}, {"measurement": "binding of AIM and FAS (co-immunoprecipitation)", "setting": "FAS [4]", "value": "coprecipitated"}]}]}
